The series “SEC + other: NMR” deals with the molecule itself. In words: SEC + other: NMR.
Series [1] has as its target filamentous actin (F-actin) from rabbit skeletal muscle (rabbit, UniProt P68135 1-377). In words: co-sedimentation.

B1: talin 2300–2541 (C-terminal actin-binding domain, wild type) (domain or fragment, mouse, UniProt P26039 2300-2541, looked up)
chain: DPTVIAENELLGAAAAIEAAAKKLEQLKPRAKPKEADESLNFEEQILEAAKSIAAATSALVKAASAAQRELVAQGKVGAIPANALDDGQWSQGLISAARMVAAATNNLCEAANAAVQGHASQEKLISSAKQVAASTAQLLVACKVKADQDSEAMKRLQAAGNAVKRASDNLVKAAQKAAAFEDQENETVVVKEKMVGGIAQIIAAQEEMLRKERELEEARKKLAQIRQQQYKFLPSELRDEH
The stoichiometry N is the number of molecules, sites or subunits per partner or assembly. On to B1, for which the “stoichiometry N” value in “SEC + other: NMR” was found to be 2. The “co-sedimentation pellet (% of WT)” value in series [1] is 100 ± 3 % of WT.

B2: talin 2300–2541 D2385K/D2386N/D2447N (domain or fragment, mouse, UniProt P26039 2300-2541, looked up)
chain: DPTVIAENELLGAAAAIEAAAKKLEQLKPRAKPKEADESLNFEEQILEAAKSIAAATSALVKAASAAQRELVAQGKVGAIPANALKNGQWSQGLISAARMVAAATNNLCEAANAAVQGHASQEKLISSAKQVAASTAQLLVACKVKANQDSEAMKRLQAAGNAVKRASDNLVKAAQKAAAFEDQENETVVVKEKMVGGIAQIIAAQEEMLRKERELEEARKKLAQIRQQQYKFLPSELRDEH
As to B2, in “SEC + other: NMR”, the “stoichiometry N” value came to 2. Besides, the “co-sedimentation pellet (% of WT)” value in series [1] is 138 ± 16 % of WT.

B3: talin 2300–2541 I2316A (domain or fragment, mouse, UniProt P26039 2300-2541, looked up)
chain: DPTVIAENELLGAAAAAEAAAKKLEQLKPRAKPKEADESLNFEEQILEAAKSIAAATSALVKAASAAQRELVAQGKVGAIPANALDDGQWSQGLISAARMVAAATNNLCEAANAAVQGHASQEKLISSAKQVAASTAQLLVACKVKADQDSEAMKRLQAAGNAVKRASDNLVKAAQKAAAFEDQENETVVVKEKMVGGIAQIIAAQEEMLRKERELEEARKKLAQIRQQQYKFLPSELRDEH
For the molecule B3, the “stoichiometry N” value in “SEC + other: NMR” amounted to 2. In addition, the “co-sedimentation pellet (% of WT)” value in series [1] was 96 ± 9 % of WT.

B4: talin 2300–2541 R2526G (domain or fragment)
chain: DPTVIAENELLGAAAAIEAAAKKLEQLKPRAKPKEADESLNFEEQILEAAKSIAAATSALVKAASAAQRELVAQGKVGAIPANALDDGQWSQGLISAARMVAAATNNLCEAANAAVQGHASQEKLISSAKQVAASTAQLLVACKVKADQDSEAMKRLQAAGNAVKRASDNLVKAAQKAAAFEDQENETVVVKEKMVGGIAQIIAAQEEMLRKERELEEARKKLAQIGQQQYKFLPSELRDEH
Regarding B4, the “co-sedimentation pellet (% of WT)” value in series [1] was 33 ± 5 % of WT.

B5: talin 2300–2541 L2515D/A2518D (domain or fragment)
chain: DPTVIAENELLGAAAAIEAAAKKLEQLKPRAKPKEADESLNFEEQILEAAKSIAAATSALVKAASAAQRELVAQGKVGAIPANALDDGQWSQGLISAARMVAAATNNLCEAANAAVQGHASQEKLISSAKQVAASTAQLLVACKVKADQDSEAMKRLQAAGNAVKRASDNLVKAAQKAAAFEDQENETVVVKEKMVGGIAQIIAAQEEMLRKEREDEEDRKKLAQIRQQQYKFLPSELRDEH
For the molecule B5, in series [1], the “co-sedimentation pellet (% of WT)” value is 42 ± 7 % of WT.

B6: talin 2300–2541 L2309A (domain or fragment, mouse, UniProt P26039 2300-2541, looked up)
chain: DPTVIAENEALGAAAAIEAAAKKLEQLKPRAKPKEADESLNFEEQILEAAKSIAAATSALVKAASAAQRELVAQGKVGAIPANALDDGQWSQGLISAARMVAAATNNLCEAANAAVQGHASQEKLISSAKQVAASTAQLLVACKVKADQDSEAMKRLQAAGNAVKRASDNLVKAAQKAAAFEDQENETVVVKEKMVGGIAQIIAAQEEMLRKERELEEARKKLAQIRQQQYKFLPSELRDEH
As to B6, the “stoichiometry N” value in the series “SEC + other: NMR” was 2. For the same molecule, the “co-sedimentation pellet (% of WT)” value in series [1] was 113 ± 3 % of WT.

B7: talin 2300–2541 K2443D/V2444D/K2445D (domain or fragment, mouse, UniProt P26039 2300-2541, looked up)
chain: DPTVIAENELLGAAAAIEAAAKKLEQLKPRAKPKEADESLNFEEQILEAAKSIAAATSALVKAASAAQRELVAQGKVGAIPANALDDGQWSQGLISAARMVAAATNNLCEAANAAVQGHASQEKLISSAKQVAASTAQLLVACDDDADQDSEAMKRLQAAGNAVKRASDNLVKAAQKAAAFEDQENETVVVKEKMVGGIAQIIAAQEEMLRKERELEEARKKLAQIRQQQYKFLPSELRDEH
Take B7: the “stoichiometry N” value in “SEC + other: NMR” amounted to 2. For the same molecule, the “co-sedimentation pellet (% of WT)” value in series [1] is 27 ± 6 % of WT.

B8: talin 2300–2541 K2445D (domain or fragment, mouse, UniProt P26039 2300-2541, looked up)
chain: DPTVIAENELLGAAAAIEAAAKKLEQLKPRAKPKEADESLNFEEQILEAAKSIAAATSALVKAASAAQRELVAQGKVGAIPANALDDGQWSQGLISAARMVAAATNNLCEAANAAVQGHASQEKLISSAKQVAASTAQLLVACKVDADQDSEAMKRLQAAGNAVKRASDNLVKAAQKAAAFEDQENETVVVKEKMVGGIAQIIAAQEEMLRKERELEEARKKLAQIRQQQYKFLPSELRDEH
As to B8, the “stoichiometry N” value in the series “SEC + other: NMR” amounted to 2. Moreover, the “co-sedimentation pellet (% of WT)” value in series [1] is 48 ± 10 % of WT.

B9: talin 2300–2541 D2447N (domain or fragment, mouse, UniProt P26039 2300-2541, looked up)
chain: DPTVIAENELLGAAAAIEAAAKKLEQLKPRAKPKEADESLNFEEQILEAAKSIAAATSALVKAASAAQRELVAQGKVGAIPANALDDGQWSQGLISAARMVAAATNNLCEAANAAVQGHASQEKLISSAKQVAASTAQLLVACKVKANQDSEAMKRLQAAGNAVKRASDNLVKAAQKAAAFEDQENETVVVKEKMVGGIAQIIAAQEEMLRKERELEEARKKLAQIRQQQYKFLPSELRDEH
Take B9: in “SEC + other: NMR”, the “stoichiometry N” value is 2. In addition, the “co-sedimentation pellet (% of WT)” value in series [1] was 144 ± 8 % of WT.

B10: talin 2300–2541 D2385K/D2386N (domain or fragment, mouse, UniProt P26039 2300-2541, looked up)
chain: DPTVIAENELLGAAAAIEAAAKKLEQLKPRAKPKEADESLNFEEQILEAAKSIAAATSALVKAASAAQRELVAQGKVGAIPANALKNGQWSQGLISAARMVAAATNNLCEAANAAVQGHASQEKLISSAKQVAASTAQLLVACKVKADQDSEAMKRLQAAGNAVKRASDNLVKAAQKAAAFEDQENETVVVKEKMVGGIAQIIAAQEEMLRKERELEEARKKLAQIRQQQYKFLPSELRDEH
For the molecule B10, the “stoichiometry N” value in “SEC + other: NMR” was 2. The “co-sedimentation pellet (% of WT)” value in series [1] is 113 ± 13 % of WT.

B11: talin 2300–2541 I2316A/L2323A (domain or fragment, mouse, UniProt P26039 2300-2541, looked up)
chain: DPTVIAENELLGAAAAAEAAAKKAEQLKPRAKPKEADESLNFEEQILEAAKSIAAATSALVKAASAAQRELVAQGKVGAIPANALDDGQWSQGLISAARMVAAATNNLCEAANAAVQGHASQEKLISSAKQVAASTAQLLVACKVKADQDSEAMKRLQAAGNAVKRASDNLVKAAQKAAAFEDQENETVVVKEKMVGGIAQIIAAQEEMLRKERELEEARKKLAQIRQQQYKFLPSELRDEH
As to B11, in the series “SEC + other: NMR”, the “stoichiometry N” value stood at 2. In addition, the “co-sedimentation pellet (% of WT)” value in series [1] is 135 ± 13 % of WT.

B12: talin 2300–2541 R2519A (domain or fragment)
chain: DPTVIAENELLGAAAAIEAAAKKLEQLKPRAKPKEADESLNFEEQILEAAKSIAAATSALVKAASAAQRELVAQGKVGAIPANALDDGQWSQGLISAARMVAAATNNLCEAANAAVQGHASQEKLISSAKQVAASTAQLLVACKVKADQDSEAMKRLQAAGNAVKRASDNLVKAAQKAAAFEDQENETVVVKEKMVGGIAQIIAAQEEMLRKERELEEAAKKLAQIRQQQYKFLPSELRDEH
Consider B12, for which, in series [1], the “co-sedimentation pellet (% of WT)” value was 37 ± 3 % of WT.

B13: talin 2300–2541 A2518D (domain or fragment)
chain: DPTVIAENELLGAAAAIEAAAKKLEQLKPRAKPKEADESLNFEEQILEAAKSIAAATSALVKAASAAQRELVAQGKVGAIPANALDDGQWSQGLISAARMVAAATNNLCEAANAAVQGHASQEKLISSAKQVAASTAQLLVACKVKADQDSEAMKRLQAAGNAVKRASDNLVKAAQKAAAFEDQENETVVVKEKMVGGIAQIIAAQEEMLRKERELEEDRKKLAQIRQQQYKFLPSELRDEH
With B13, in series [1], the “co-sedimentation pellet (% of WT)” value is 43 ± 10 % of WT.

B14: talin 2300–2541 L2323A (domain or fragment, mouse, UniProt P26039 2300-2541, looked up)
chain: DPTVIAENELLGAAAAIEAAAKKAEQLKPRAKPKEADESLNFEEQILEAAKSIAAATSALVKAASAAQRELVAQGKVGAIPANALDDGQWSQGLISAARMVAAATNNLCEAANAAVQGHASQEKLISSAKQVAASTAQLLVACKVKADQDSEAMKRLQAAGNAVKRASDNLVKAAQKAAAFEDQENETVVVKEKMVGGIAQIIAAQEEMLRKERELEEARKKLAQIRQQQYKFLPSELRDEH
Take B14: the “stoichiometry N” value in “SEC + other: NMR” was found to be 2. The “co-sedimentation pellet (% of WT)” value in series [1] was 127 ± 3 % of WT.

B15: talin 2300–2541 R2526A (domain or fragment)
chain: DPTVIAENELLGAAAAIEAAAKKLEQLKPRAKPKEADESLNFEEQILEAAKSIAAATSALVKAASAAQRELVAQGKVGAIPANALDDGQWSQGLISAARMVAAATNNLCEAANAAVQGHASQEKLISSAKQVAASTAQLLVACKVKADQDSEAMKRLQAAGNAVKRASDNLVKAAQKAAAFEDQENETVVVKEKMVGGIAQIIAAQEEMLRKERELEEARKKLAQIAQQQYKFLPSELRDEH
With B15, the “co-sedimentation pellet (% of WT)” value in series [1] was 37 ± 9 % of WT.

B16: talin 2300–2541 L2309A/L2323A (domain or fragment, mouse, UniProt P26039 2300-2541, looked up)
chain: DPTVIAENEALGAAAAIEAAAKKAEQLKPRAKPKEADESLNFEEQILEAAKSIAAATSALVKAASAAQRELVAQGKVGAIPANALDDGQWSQGLISAARMVAAATNNLCEAANAAVQGHASQEKLISSAKQVAASTAQLLVACKVKADQDSEAMKRLQAAGNAVKRASDNLVKAAQKAAAFEDQENETVVVKEKMVGGIAQIIAAQEEMLRKERELEEARKKLAQIRQQQYKFLPSELRDEH
Consider B16, for which the “stoichiometry N” value in the series “SEC + other: NMR” is 2. In addition, in series [1], the “co-sedimentation pellet (% of WT)” value was 154 ± 7 % of WT.

B17: talin 2300–2541 K2443D (domain or fragment, mouse, UniProt P26039 2300-2541, looked up)
chain: DPTVIAENELLGAAAAIEAAAKKLEQLKPRAKPKEADESLNFEEQILEAAKSIAAATSALVKAASAAQRELVAQGKVGAIPANALDDGQWSQGLISAARMVAAATNNLCEAANAAVQGHASQEKLISSAKQVAASTAQLLVACDVKADQDSEAMKRLQAAGNAVKRASDNLVKAAQKAAAFEDQENETVVVKEKMVGGIAQIIAAQEEMLRKERELEEARKKLAQIRQQQYKFLPSELRDEH
For B17, the “stoichiometry N” value in “SEC + other: NMR” was 2. Moreover, the “co-sedimentation pellet (% of WT)” value in series [1] is 43 ± 5 % of WT.

B18: talin 2300–2541 L2515D (domain or fragment)
chain: DPTVIAENELLGAAAAIEAAAKKLEQLKPRAKPKEADESLNFEEQILEAAKSIAAATSALVKAASAAQRELVAQGKVGAIPANALDDGQWSQGLISAARMVAAATNNLCEAANAAVQGHASQEKLISSAKQVAASTAQLLVACKVKADQDSEAMKRLQAAGNAVKRASDNLVKAAQKAAAFEDQENETVVVKEKMVGGIAQIIAAQEEMLRKEREDEEARKKLAQIRQQQYKFLPSELRDEH
Regarding B18, the “co-sedimentation pellet (% of WT)” value in series [1] was 36 ± 6 % of WT.

Values taken from article PMC2168396 (The EMBO Journal, 2007).
